Test results: US20210346432A1 (Memorial Sloan Kettering, published 2021)
No end group written: not given here. *: point of attachment. Biotin = O=C1N[C@H]2[C@H](CS[C@H]2CCCCC(=O)*)N1

Key:
Experiment in all cases: peptide ELISA on streptavidin plate
ET140-p24 = target: T1, ET140-p24 (human, cysteine pairing not given here)
T1 construct: also called peptide 24
T1 peptide: Biotin-SGSGQLRCSSNTPPLTCQR
Experimental: (§1) The peptides were coated onto Streptavidin plates at 2 ug/mL in PBST (PBS+0.05% Tween-20). After washing and blocking with 3% BSA. […] “mIgG1” used in all Examples represents that the variable region is fully human and the Fc part is mouse IgG1. Then HRP anti-mouse IgG detection antibody was added to each well. Finally, the color was developed using TMB substrate. A450 was recorded for data analysis.

ET140-p15 = target: T2, ET140-p15 (human, cysteine pairing not given here)
T2 construct: also called peptide 15
T2 peptide: Biotin-SGSGSLLHACIPCQLRCSS
Experimental: as §1

ET140-p16 = target: T3, ET140-p16 (human, cysteine pairing not given here)
T3 construct: also called peptide 16
T3 peptide: Biotin-SGSGLLHACIPCQLRCSSN
Experimental: as §1

ET140-p22 = target: T4, ET140-p22 (human, cysteine pairing not given here)
T4 construct: also called peptide 22
T4 peptide: Biotin-SGSGPCQLRCSSNTPPLTC
Experimental: as §1

ET140-p29 = target: T5, ET140-p29 (human, cysteine pairing not given here)
T5 construct: also called peptide 29
T5 peptide: Biotin-SGSGSNTPPLTCQRYCNAS
Experimental: as §1

ET140-p35 = target: T6, ET140-p35 (human, cysteine pairing not given here)
T6 construct: also called peptide 35
T6 peptide: Biotin-SGSGTCQRYCNASVTNSVK
Experimental: as §1

ET140-p32 = target: T7, ET140-p32 (human, cysteine pairing not given here)
T7 construct: also called peptide 32
T7 peptide: Biotin-SGSGPPLTCQRYCNASVTN
Experimental: as §1

ET140-p30 = target: T8, ET140-p30 (human, cysteine pairing not given here)
T8 construct: also called peptide 30
T8 peptide: Biotin-SGSGNTPPLTCQRYCNASV
Experimental: as §1

ET140-p23 = target: T9, ET140-p23 (human, cysteine pairing not given here)
T9 construct: also called peptide 23
T9 peptide: Biotin-SGSGCQLRCSSNTPPLTCQ
Experimental: as §1

ET140-p33 = target: T10, ET140-p33 (human, cysteine pairing not given here)
T10 construct: also called peptide 33
T10 peptide: Biotin-SGSGPLTCQRYCNASVTNS
Experimental: as §1

ET140-p20 = target: T11, ET140-p20 (human, cysteine pairing not given here)
T11 construct: also called peptide 20
T11 peptide: Biotin-SGSGCIPCQLRCSSNTPPL
Experimental: as §1

ET140-p21 = target: T12, ET140-p21 (human, cysteine pairing not given here)
T12 construct: also called peptide 21
T12 peptide: Biotin-SGSGIPCQLRCSSNTPPLT
Experimental: as §1

ET140-p17 = target: T13, ET140-p17 (human, cysteine pairing not given here)
T13 construct: also called peptide 17
T13 peptide: Biotin-SGSGLHACIPCQLRCSSNT
Experimental: as §1

ET140-p36 = target: T14, ET140-p36 (human, cysteine pairing not given here)
T14 construct: also called peptide 36
T14 peptide: Biotin-SGSGCQRYCNASVTNSVKG
Experimental: as §1

ET140-p18 = target: T15, ET140-p18 (human, cysteine pairing not given here)
T15 construct: also called peptide 18
T15 peptide: Biotin-SGSGHACIPCQLRCSSNTP
Experimental: as §1

ET140-p14 = target: T16, ET140-p14 (human, cysteine pairing not given here)
T16 construct: also called peptide 14
T16 peptide: Biotin-SGSGDSLLHACIPCQLRCS
Experimental: as §1

ET140-p5 = target: T17, ET140-p5 (human)
T17 construct: also called peptide 5
T17 peptide: Biotin-SGSGGQCSQNEYFDSLLHA
Experimental: as §1

ET140-p27 = target: T18, ET140-p27 (human, cysteine pairing not given here)
T18 construct: also called peptide 27
T18 peptide: Biotin-SGSGCSSNTPPLTCQRYCN
Experimental: as §1

ET140-p39 = target: T19, ET140-p39 (human)
T19 construct: also called peptide 39
T19 peptide: Biotin-SGSGYCNASVTNSVKGTNA
Experimental: as §1

ET140-p38 = target: T20, ET140-p38 (human)
T20 construct: also called peptide 38
T20 peptide: Biotin-SGSGRYCNASVTNSVKGTN
Experimental: as §1

ET140-p1 = target: T21, ET140-p1 (human)
T21 construct: also called peptide 1; ET140-pl
T21 peptide: Biotin-SGSGLQMAGQCSQNEYFDS
Experimental: as §1

ET140-p3 = target: T22, ET140-p3 (human)
T22 construct: also called peptide 3
T22 peptide: Biotin-SGSGMAGQCSQNEYFDSLL
Experimental: as §1

ET140-p6 = target: T23, ET140-p6 (human, cysteine pairing not given here)
T23 construct: also called peptide 6
T23 peptide: Biotin-SGSGQCSQNEYFDSLLHAC
Experimental: as §1

binding result (ET140-p24): no binding (tested: 1 ug/mL)
binding result (ET140-p15): no binding (tested: 1 ug/mL)
binding result (ET140-p16): no binding (tested: 1 ug/mL)
binding result (ET140-p22): no binding (tested: 1 ug/mL)
binding result (ET140-p29): no binding (tested: 1 ug/mL)
binding result (ET140-p35): no binding (tested: 1 ug/mL)
binding result (ET140-p32): no binding (tested: 1 ug/mL)
binding result (ET140-p30): no binding (tested: 1 ug/mL)
binding result (ET140-p23): no binding (tested: 1 ug/mL)
binding result (ET140-p33): no binding (tested: 1 ug/mL)
binding result (ET140-p20): no binding (tested: 1 ug/mL)
binding result (ET140-p21): no binding (tested: 1 ug/mL)
binding result (ET140-p17): no binding (tested: 1 ug/mL)
binding result (ET140-p36): no binding (tested: 1 ug/mL)
binding result (ET140-p18): no binding (tested: 1 ug/mL)
binding result (ET140-p14): no binding (tested: 1 ug/mL)
binding result (ET140-p5): no binding (tested: 1 ug/mL)
binding result (ET140-p27): no binding (tested: 1 ug/mL)
binding result (ET140-p39): no binding (tested: 1 ug/mL)
binding result (ET140-p38): no binding (tested: 1 ug/mL)
binding result (ET140-p1): no binding (tested: 1 ug/mL)
binding result (ET140-p3): no binding (tested: 1 ug/mL)
binding result (ET140-p6): no binding (tested: 1 ug/mL)
B1: ET140-153 mIgG1 (antibody, V domains shown)
VH: QVQLVQSGAEVKKPGSSVKVSCKASGGTFSSYAISWVRQAPGQGLEWMGRIIPILGIANYAQKFQGRVTITADKSTSTAYMELSSLRSEDTAVYYCARGGYYSHDMWSEDWGQGTLVTVSS
VL: LPVLTQPPSASGTPGQRVTISCSGRSSNIGSNSVNWYRQLPGAAPKLLIYSNNQRPPGVPVRFSGSKSGTSASLAISGLQSEDEATYYCATWDDNLNVHYVFGTGTKVTVLG
notes: also called ET140-3 mIgG1; ET140-3
